Each block holds one binder with its values, some of them ahead of it.
What was measured:
Assay in all cases: two-hybrid library CCNG1;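 also: natural log of median RNA to DNA barcode read ratio; higher means stronger binding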
4H1710-bA = molecular target: T1, 4H1710-bA
T1 chain: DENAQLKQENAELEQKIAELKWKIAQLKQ

4H1804-bA = molecular target: T2, 4H1804-bA
T2 chain: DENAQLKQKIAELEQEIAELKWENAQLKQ

4H1899-bA = molecular target: T3, 4H1899-bA
T3 chain: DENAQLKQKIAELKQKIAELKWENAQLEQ

4H1985-bA = molecular target: T4, 4H1985-bA
T4 chain: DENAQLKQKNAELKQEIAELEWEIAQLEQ

4H3129-bA = molecular target: T5, 4H3129-bA
T5 chain: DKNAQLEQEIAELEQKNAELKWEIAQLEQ

4H3162-bA = molecular target: T6, 4H3162-bA
T6 chain: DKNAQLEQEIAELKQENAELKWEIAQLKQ

4H3172-bA = molecular target: T7, 4H3172-bA
T7 chain: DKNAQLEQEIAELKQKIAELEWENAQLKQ

4H3175-bA = molecular target: T8, 4H3175-bA
T8 chain: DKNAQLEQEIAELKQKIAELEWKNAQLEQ

4H3277-bA = molecular target: T9, 4H3277-bA
T9 chain: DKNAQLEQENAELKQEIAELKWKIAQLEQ

4H3298-bA = molecular target: T10, 4H3298-bA
T10 chain: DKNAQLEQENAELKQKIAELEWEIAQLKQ

4H3414-bA = molecular target: T11, 4H3414-bA
T11 chain: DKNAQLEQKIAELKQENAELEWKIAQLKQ

4H3462-bA = molecular target: T12, 4H3462-bA
T12 chain: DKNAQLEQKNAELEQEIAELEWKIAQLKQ

4H3497-bA = molecular target: T13, 4H3497-bA
T13 chain: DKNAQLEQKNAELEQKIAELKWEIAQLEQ

4H3613-bA = molecular target: T14, 4H3613-bA
T14 chain: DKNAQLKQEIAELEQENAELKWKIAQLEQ

4H3628-bA = molecular target: T15, 4H3628-bA
T15 chain: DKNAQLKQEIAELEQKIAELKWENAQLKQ

4H3631-bA = molecular target: T16, 4H3631-bA
T16 chain: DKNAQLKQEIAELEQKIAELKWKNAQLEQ

4H3638-bA = molecular target: T17, 4H3638-bA
T17 chain: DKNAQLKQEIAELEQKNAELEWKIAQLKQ

4H3817-bA = molecular target: T18, 4H3817-bA
T18 chain: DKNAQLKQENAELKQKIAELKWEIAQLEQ

4H3855-bA = molecular target: T19, 4H3855-bA
T19 chain: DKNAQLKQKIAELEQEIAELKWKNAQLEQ

4H3858-bA = molecular target: T20, 4H3858-bA
T20 chain: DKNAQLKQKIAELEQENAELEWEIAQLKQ

4H3926-bA = molecular target: T21, 4H3926-bA
T21 chain: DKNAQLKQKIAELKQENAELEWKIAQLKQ

4H3974-bA = molecular target: T22, 4H3974-bA
T22 chain: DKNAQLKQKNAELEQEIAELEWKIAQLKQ

4H570-bA = molecular target: T23, 4H570-bA
T23 chain: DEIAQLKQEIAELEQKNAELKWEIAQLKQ

4H584-bA = molecular target: T24, 4H584-bA
T24 chain: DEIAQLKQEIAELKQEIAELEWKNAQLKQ

4H591-bA = molecular target: T25, 4H591-bA
T25 chain: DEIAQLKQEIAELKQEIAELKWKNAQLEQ

4H619-bA = molecular target: T26, 4H619-bA
T26 chain: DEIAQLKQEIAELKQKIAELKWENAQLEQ

4H626-bA = molecular target: T27, 4H626-bA
T27 chain: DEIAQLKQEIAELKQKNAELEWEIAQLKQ

4H850-bA = molecular target: T28, 4H850-bA
T28 chain: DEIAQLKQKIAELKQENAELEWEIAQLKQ

4H906-bA = molecular target: T29, 4H906-bA
T29 chain: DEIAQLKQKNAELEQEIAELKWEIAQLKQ

O14-bA = molecular target: T30, O14-bA
T30 chain: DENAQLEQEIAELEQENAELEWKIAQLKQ

4H2444-bH = molecular target: T31, 4H2444-bH
T31 chain: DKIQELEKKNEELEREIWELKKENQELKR

4H2518-bH = molecular target: T32, 4H2518-bH
T32 chain: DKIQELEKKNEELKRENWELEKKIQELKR

4H2585-bH = molecular target: T33, 4H2585-bH
T33 chain: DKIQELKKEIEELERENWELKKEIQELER

4H264-bH = molecular target: T34, 4H264-bH
T34 chain: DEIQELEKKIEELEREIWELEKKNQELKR

4H2760-bH = molecular target: T35, 4H2760-bH
T35 chain: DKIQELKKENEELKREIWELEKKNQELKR

4H2859-bH = molecular target: T36, 4H2859-bH
T36 chain: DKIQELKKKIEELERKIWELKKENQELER

4H2931-bH = molecular target: T37, 4H2931-bH
T37 chain: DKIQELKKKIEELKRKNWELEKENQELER

4H3041-bH = molecular target: T38, 4H3041-bH
T38 chain: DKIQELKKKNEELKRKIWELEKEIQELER

4H3297-bH = molecular target: T39, 4H3297-bH
T39 chain: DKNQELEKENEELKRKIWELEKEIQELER

4H3364-bH = molecular target: T40, 4H3364-bH
T40 chain: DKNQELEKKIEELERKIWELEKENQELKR

4H3381-bH = molecular target: T41, 4H3381-bH
T41 chain: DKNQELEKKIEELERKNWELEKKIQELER

4H349-bH = molecular target: T42, 4H349-bH
T42 chain: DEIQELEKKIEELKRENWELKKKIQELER

4H56-bH = molecular target: T43, 4H56-bH
T43 chain: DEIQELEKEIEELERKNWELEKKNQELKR

4H730-bH = molecular target: T44, 4H730-bH
T44 chain: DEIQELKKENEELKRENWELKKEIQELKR

4H796-bH = molecular target: T45, 4H796-bH
T45 chain: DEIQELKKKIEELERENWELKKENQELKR

4H932-bH = molecular target: T46, 4H932-bH
T46 chain: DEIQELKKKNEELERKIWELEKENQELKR

4H949-bH = molecular target: T47, 4H949-bH
T47 chain: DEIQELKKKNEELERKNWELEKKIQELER

P4mSN = molecular target: T48, P4mSN
T48 chain: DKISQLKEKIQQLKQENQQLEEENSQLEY

P5mSN = molecular target: T49, P5mSN
T49 chain: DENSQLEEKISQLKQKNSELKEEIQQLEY

P6mSN = molecular target: T50, P6mSN
T50 chain: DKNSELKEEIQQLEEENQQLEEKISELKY

P7mSN = molecular target: T51, P7mSN
T51 chain: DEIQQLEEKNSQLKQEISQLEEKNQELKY

P8mSN = molecular target: T52, P8mSN
T52 chain: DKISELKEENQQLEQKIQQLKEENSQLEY

P9mSN = molecular target: T53, P9mSN
T53 chain: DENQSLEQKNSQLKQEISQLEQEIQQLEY

4H906-bN = molecular target: T54, 4H906-bN
T54 chain: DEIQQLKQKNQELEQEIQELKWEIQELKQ

4H363-bA = molecular target: T55, 4H363-bA
T55 chain: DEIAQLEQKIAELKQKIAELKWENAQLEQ

4H3907-bA = molecular target: T56, 4H3907-bA
T56 chain: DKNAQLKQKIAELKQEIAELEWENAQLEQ

4H3961-bA = molecular target: T57, 4H3961-bA
T57 chain: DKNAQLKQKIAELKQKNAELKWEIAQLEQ

4H470-bA = molecular target: T58, 4H470-bA
T58 chain: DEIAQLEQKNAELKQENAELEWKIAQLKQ

interaction score (4H2444-bH): 1.48
interaction score (4H2518-bH): 0.571
interaction score (4H2585-bH): 0.868
interaction score (4H264-bH): -2.12
interaction score (4H2760-bH): 0.592
interaction score (4H2859-bH): 0.771
interaction score (4H2931-bH): 0.0488
interaction score (4H3041-bH): -0.0348
interaction score (4H3297-bH): 0.285
interaction score (4H3364-bH): 0.375
interaction score (4H3381-bH): 0.313
interaction score (4H349-bH): -0.694
interaction score (4H56-bH): -0.284
interaction score (4H730-bH): -0.91
interaction score (4H796-bH): 0.0566
interaction score (4H932-bH): 0.176
interaction score (4H949-bH): -0.478
Binder: DKIQELEKKNEELEREIWELKKENQELKR [4H2444-bH]

interaction score (P4mSN): -1.76
interaction score (P5mSN): -1.42
interaction score (P6mSN): -0.838
interaction score (P7mSN): -1.04
interaction score (P8mSN): -1.53
interaction score (P9mSN): -1.07
Binder: DKISQLKEKIQQLKQENQQLEEENSQLEY [P4mSN]

The remaining lines, values behind:

Binder: DENAQLKQENAELEQKIAELKWKIAQLKQ [4H1710-bA]
interaction score (4H1710-bA): 0.102
interaction score (4H1804-bA): -0.669
interaction score (4H1899-bA): -0.115
interaction score (4H1985-bA): 2.11
interaction score (4H3129-bA): 0.367
interaction score (4H3162-bA): -0.713
interaction score (4H3172-bA): -0.97
interaction score (4H3175-bA): -0.421
interaction score (4H3277-bA): -0.282
interaction score (4H3298-bA): 0.819
interaction score (4H3414-bA): -0.541
interaction score (4H3462-bA): 1.04
interaction score (4H3497-bA): 1.01
interaction score (4H3613-bA): 0.262
interaction score (4H3628-bA): 0.848
interaction score (4H3631-bA): 1.48
interaction score (4H3638-bA): 0.729
interaction score (4H3817-bA): 1.53
interaction score (4H3855-bA): 0.515
interaction score (4H3858-bA): 0.318
interaction score (4H3926-bA): 0.352
interaction score (4H3974-bA): 1.34
interaction score (4H570-bA): -1.24
interaction score (4H584-bA): -0.0679
interaction score (4H591-bA): -1.11
interaction score (4H619-bA): 0.519
interaction score (4H626-bA): -0.621
interaction score (4H850-bA): 0.0118
interaction score (4H906-bA): 0.904
interaction score (O14-bA): -1.06

Binder: DENAQLKQKIAELEQEIAELKWENAQLKQ [4H1804-bA]
interaction score (4H1804-bA): 0.9
interaction score (4H1985-bA): -0.729
interaction score (4H3129-bA): 0.386
interaction score (4H3172-bA): -0.016
interaction score (4H3414-bA): -0.0712
interaction score (4H3631-bA): 0.394
interaction score (4H3638-bA): -0.376
interaction score (4H3817-bA): -0.0173
interaction score (4H3974-bA): -0.32
interaction score (4H570-bA): -0.765
interaction score (4H584-bA): -0.489
interaction score (4H619-bA): -1.65
interaction score (4H850-bA): -0.531
interaction score (4H906-bA): -0.55

Binder: DEIQQLKQKNQELEQEIQELKWEIQELKQ [4H906-bN]
interaction score (4H906-bN): -0.198
interaction score (P4mSN): -1.42

Binder: DEIAQLEQKIAELKQKIAELKWENAQLEQ [4H363-bA]
interaction score (4H363-bA): 1.08
interaction score (4H3907-bA): 1.32
interaction score (4H3961-bA): 0.154
interaction score (4H470-bA): -2.31

From paper PMC10397247
